Data: publication PMC4133371

Target: endogenous E-cadherin (dog (endogenous in MDCK))
Assay: co-IP; endogenous E-cadherin collected by antibodies to its extracellular part from lysates of MDCK cells expressing DsRed, DECT, DECTSA, DECTN or DECTC; immunoblot with anti-β-catenin or anti-plakoglobin; bands quantified with NIH Image as percent of DsRed cells

Chain of endogenous E-cadherin (dog (endogenous in MDCK)) (F1PAA9 27-885): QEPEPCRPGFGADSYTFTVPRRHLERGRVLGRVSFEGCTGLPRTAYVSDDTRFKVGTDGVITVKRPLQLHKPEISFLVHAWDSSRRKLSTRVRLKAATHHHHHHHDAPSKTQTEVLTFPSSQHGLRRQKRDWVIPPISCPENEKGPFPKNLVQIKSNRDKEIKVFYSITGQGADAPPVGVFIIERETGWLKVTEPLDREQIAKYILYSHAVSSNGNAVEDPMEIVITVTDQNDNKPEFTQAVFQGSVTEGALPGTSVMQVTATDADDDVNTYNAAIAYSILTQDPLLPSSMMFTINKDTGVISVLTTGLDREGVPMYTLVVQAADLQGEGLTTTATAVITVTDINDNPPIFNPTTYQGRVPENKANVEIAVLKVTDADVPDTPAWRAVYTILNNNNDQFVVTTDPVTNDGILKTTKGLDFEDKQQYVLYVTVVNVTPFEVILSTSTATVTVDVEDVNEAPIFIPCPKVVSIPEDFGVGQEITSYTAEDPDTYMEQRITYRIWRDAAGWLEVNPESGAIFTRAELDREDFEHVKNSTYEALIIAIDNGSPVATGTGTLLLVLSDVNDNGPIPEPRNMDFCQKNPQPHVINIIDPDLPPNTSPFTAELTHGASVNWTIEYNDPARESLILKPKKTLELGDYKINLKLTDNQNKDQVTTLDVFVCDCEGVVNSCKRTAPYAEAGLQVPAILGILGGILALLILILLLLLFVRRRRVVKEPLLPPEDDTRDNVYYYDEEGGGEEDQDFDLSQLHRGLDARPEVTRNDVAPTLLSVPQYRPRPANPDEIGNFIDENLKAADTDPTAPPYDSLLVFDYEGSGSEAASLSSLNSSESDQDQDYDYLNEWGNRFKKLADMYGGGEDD

percent co-precipitated with endogenous E-cadherin relative to DsRed cells (cells expressing DECT)	percent co-precipitated with endogenous E-cadherin relative to DsRed cells (cells expressing DECTC)	percent co-precipitated with endogenous E-cadherin relative to DsRed cells (cells expressing DECTN)	percent co-precipitated with endogenous E-cadherin relative to DsRed cells (cells expressing DsRed)	Molecule
33%	187%	100%	100%	plakoglobin (natural protein)
4%	24%	102%	100%	β-catenin (natural protein) MATQADLMELDMAMEPDRKAAVSHWQQQSYLDSGIHSGATTTAPSLSGKGNPEEEDVDTTQVLYEWEQGFSQSFTQEQVADIDGQYAMTRAQRVRAAMFPETLDEGMQIPSTQFDAAHPTNVQRLAEPSQMLKHAVVNLINYQDDAELATRAIPELTKLLNDEDQVVVNKAAVMVHQLSKKEASRHAIMRSPQMVSAIVRTMQNTNDVETARCTAGTLHNLSHHREGLLAIFKSGGIPALVKMLGSPVDSVLFYAITTLHNLLLHQEGAKMAVRLAGGLQKMVALLNKTNVKFLAITTDCLQILAYGNQESKLIILASGGPQALVNIMRTYTYEKLLWTTSRVLKVLSVCSSNKPAIVEAGGMQALGLHLTDPSQRLVQNCLWTLRNLSDAATKQEGMEGLLGTLVQLLGSDDINVVTCAAGILSNLTCNNYKNKMMVCQVGGIEALVRTVLRAGDREDITEPAICALRHLTSRHQEAEMAQNAVRLHYGLPVVVKLLHPPSHWPLIKATVGLIRNLALCPANHAPLREQGAIPRLVQLLVRAHQDTQRRTSMGGTQQQFVEGVRMEEIVEGCTGALHILARDVHNRIVIRGLNTIPLFVQLLYSPIENIQRVAAGVLCELAQDKEAAEAIEAEGATAPLTELLHSRNEGVATYAAAVLFRMSEDKPQDYKKRLSVELTSSLFRTEPMAWNETADLGLDIGAQGEPLGYRQDDPSYRSFHSGGYGQDALGMDPMMEHEMGGHHPGADYPVDGLPDLGHAQDLMDGLPPGDSNQLAWFDTDL
